The results in this text go back to patent US6030780, “Purified Stat proteins and methods of purifying thereof” (The Rockefeller University).

The target in data set [1] is Stat1tc, phosphorylated Tyr701 (Homo sapiens) (UniProt P42224). Nature of the data set: EMSA. In general terms: A gel shift assay detects complexes by their altered migration in electrophoresis.
Data set [2] deals with T1, Stat1alpha, phosphorylated Tyr701 (Homo sapiens, UniProt P42224 P42224:1-750). Nature of the data set: EMSA; binding unaffected by NEM alkylation; no difference from Stat1tc in off-rate. The settings on record: tags: baculovirus/Sf9; NEM-alkylated; phosphorylated in vitro by EGF-receptor kinase; chain copies: 2; label: 32P; protruding 5'-TCC. The text has this:
Figure 3A: FIG. 3A. DNA binding of purified phosphorylated Stat1α (lane 1) and Stat1tc (lane 2) using as a probe the radioactively labelled cfosWT sequence. Binding reactions contained equimolar amounts of the respective proteins. The position of migration of the free DNA probe (free) and the protein/DNA complex (bound) is indicated. Note the presence of a slower migrating band only with the full length Stat1α, lane 1 (see also FIG. 3B). Figure 3B: FIG. 3B. Influence of cysteine alkylation on the DNA binding activity of Stat1α. A mixture of phosphorylated and unphosphorylated protein (0.23 µM final; ~15% phosphoprotein) was reacted in the presence of 0.8 mM DTT and the indicated concentrations of N-ethyl-maleimide (NEM) for 20 min at room temperature in a volume of 12.5 µl. The reaction was stopped with DTT (final concentration of 10 mM) followed by the addition of 1.5 pmoles of labelled probe (cfosM67). Samples were resolved on a 4.5% native polyacrylamide gel. (M) denotes the position of bromophenol blue (lower) and xylene cyanol (upper) markers.
Electrophoretic mobility shift assays (EMSA) (Fried and Crothers, 1981; Garner and Revzin, 1981) were used to test DNA binding of tyrosine phosphorylated Stat1α and Stat1tc. […] In addition, the DNA binding ability of homodimeric phosphorylated Stat1α or its truncated form was highly resistant to up to 2 Molar monovalent salt concentrations.

The target of data set [3] is T1, Stat1alpha, phosphorylated Tyr701. Nature of the data set: EMSA; 2x(dimer) complex stable, >30 min for partial displacement by 100x competitor. To be noted: tags: baculovirus/Sf9; NEM-alkylated; phosphorylated in vitro by EGF-receptor kinase; chain copies: 2; label: 32P; protruding 5'-TCC; two tandem sites. The protocol:
Under the reaction conditions described above, each oligonucleotide (at 2×10^-9 M or otherwise stated) was mixed with 0.55×10^-9 M dimer of purified phosphorylated Stat1 protein. The reaction volume was scaled up to 100 μl. The reaction was incubated for 5–15 min at room temperature and for time zero, an aliquot (10 μl) was removed and loaded directly onto a pre-run polyacrylamide gel (see above). Afterwards, a 100×molar excess of homologous unlabelled DNA (in less than 1% of the reaction volume) was added. At subsequent time points (indicated in FIGS. 5C–5D, and 7) 10 μl aliquots were withdrawn and also loaded onto the running gel (at 10 V/cm). After entering the final time point (after 30–45 min), electrophoresis was continued at 20 V/cm until the unbound labelled DNA-fraction reached the bottom of the gel. Gels were dried, exposed to X-ray film and labelled protein/DNA complexes and unbound labelled DNA were quantitated as described above. The half life was determined from a semi-log plot of the numerical data (shifted radioactivity over shifted radioactivity at time zero versus time). For many sequences studied, the half life was too short ([…]) to be determined by EMSA. All experiments were performed at least twice with the different oligonucleotides. […]

Data set [4] concerns the target Stat1beta, phosphorylated Tyr701 (Homo sapiens, UniProt P42224-2 P42224-2:1-712). Nature of the data set: EMSA; 2x(dimer) complex stabilized as with Stat1alpha. To be noted: tags: baculovirus/Sf9; NEM-alkylated; phosphorylated in vitro by EGF-receptor kinase; chain copies: 2; label: 32P; protruding 5'-TCC; two tandem sites.
In data set [5] the target is T1, Stat1alpha, phosphorylated Tyr701. The experiment in a line: EMSA; apparent Keq, dimer; 40 mM KCl, 10 mM MgCl2, 10 mM CaCl2, RT; complex half-life <0.5 min. To be noted: tags: baculovirus/Sf9; NEM-alkylated; phosphorylated in vitro by EGF-receptor kinase; chain copies: 2; label: 32P; protruding 5'-TCC.
For data set [6] the target is unchanged. Nature of the data set: EMSA; stabilization indistinguishable from 10 bp spacing. The settings on record: tags: baculovirus/Sf9; NEM-alkylated; phosphorylated in vitro by EGF-receptor kinase; chain copies: 2; label: 32P; protruding 5'-TCC; two tandem sites. The protocol:
Under the reaction conditions described above, each oligonucleotide (at 2×10^-9 M or otherwise stated) was mixed with 0.55×10^-9 M dimer of purified phosphorylated Stat1 protein. The reaction volume was scaled up to 100 μl. The reaction was incubated for 5–15 min at room temperature and for time zero, an aliquot (10 μl) was removed and loaded directly onto a pre-run polyacrylamide gel (see above). Afterwards, a 100×molar excess of homologous unlabelled DNA (in less than 1% of the reaction volume) was added. At subsequent time points (indicated in FIGS. 5C–5D, and 7) 10 μl aliquots were withdrawn and also loaded onto the running gel (at 10 V/cm). After entering the final time point (after 30–45 min), electrophoresis was continued at 20 V/cm until the unbound labelled DNA-fraction reached the bottom of the gel. Gels were dried, exposed to X-ray film and labelled protein/DNA complexes and unbound labelled DNA were quantitated as described above. The half life was determined from a semi-log plot of the numerical data (shifted radioactivity over shifted radioactivity at time zero versus time). For many sequences studied, the half life was too short ([…]) to be determined by EMSA. All experiments were performed at least twice with the different oligonucleotides.
Figure 7B: FIG. 7B. […]

T1 sequence (P42224 whole entry, one chain of several): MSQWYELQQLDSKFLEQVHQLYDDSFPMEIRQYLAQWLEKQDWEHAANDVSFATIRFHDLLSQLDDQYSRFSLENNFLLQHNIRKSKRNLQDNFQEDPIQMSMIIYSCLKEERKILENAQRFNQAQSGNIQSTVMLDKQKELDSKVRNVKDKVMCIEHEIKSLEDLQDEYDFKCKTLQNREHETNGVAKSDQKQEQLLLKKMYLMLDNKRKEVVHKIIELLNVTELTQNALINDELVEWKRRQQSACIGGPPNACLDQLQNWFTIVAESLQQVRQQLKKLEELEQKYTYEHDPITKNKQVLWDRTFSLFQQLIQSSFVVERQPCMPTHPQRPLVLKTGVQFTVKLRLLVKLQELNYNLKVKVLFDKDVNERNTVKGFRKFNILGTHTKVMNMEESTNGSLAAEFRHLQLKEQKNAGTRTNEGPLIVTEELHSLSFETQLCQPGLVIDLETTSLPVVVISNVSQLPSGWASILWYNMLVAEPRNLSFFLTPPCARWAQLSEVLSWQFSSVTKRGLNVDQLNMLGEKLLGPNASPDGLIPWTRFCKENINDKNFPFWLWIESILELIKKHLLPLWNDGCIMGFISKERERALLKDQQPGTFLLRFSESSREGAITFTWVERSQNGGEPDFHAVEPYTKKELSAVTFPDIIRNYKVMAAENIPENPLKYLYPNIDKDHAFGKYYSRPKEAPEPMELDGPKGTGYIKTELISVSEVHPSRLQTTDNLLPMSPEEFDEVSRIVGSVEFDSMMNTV
Stat1tc, phosphorylated Tyr701 (Homo sapiens), sequence (P42224 whole entry): as the sequence (P42224 whole entry, one chain of several) above
Stat1beta, phosphorylated Tyr701, sequence (P42224 1-712, one chain of several): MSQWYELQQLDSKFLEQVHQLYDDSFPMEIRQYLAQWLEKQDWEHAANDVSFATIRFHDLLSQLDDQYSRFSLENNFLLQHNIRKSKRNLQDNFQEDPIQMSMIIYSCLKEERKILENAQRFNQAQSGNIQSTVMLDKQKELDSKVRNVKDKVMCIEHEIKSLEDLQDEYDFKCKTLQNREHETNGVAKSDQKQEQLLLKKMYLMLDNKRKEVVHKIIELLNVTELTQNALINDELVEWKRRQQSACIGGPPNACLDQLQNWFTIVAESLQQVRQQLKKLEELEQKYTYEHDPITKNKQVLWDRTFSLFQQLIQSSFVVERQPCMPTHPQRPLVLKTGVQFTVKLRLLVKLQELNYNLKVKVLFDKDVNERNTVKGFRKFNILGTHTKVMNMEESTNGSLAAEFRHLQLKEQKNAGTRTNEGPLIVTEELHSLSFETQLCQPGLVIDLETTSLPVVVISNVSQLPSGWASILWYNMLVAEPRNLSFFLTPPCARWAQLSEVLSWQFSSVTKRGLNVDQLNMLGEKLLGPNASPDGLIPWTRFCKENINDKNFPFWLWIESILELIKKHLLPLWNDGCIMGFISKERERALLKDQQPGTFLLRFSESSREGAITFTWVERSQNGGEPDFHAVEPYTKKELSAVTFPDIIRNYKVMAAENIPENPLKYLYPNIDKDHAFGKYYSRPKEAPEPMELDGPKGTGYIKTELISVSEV

“GTATTCCCGTCAATGCA (double strand) [cfosWT]”: the Kd in data set [1] (apparent Keq, dimer, 40 mM KCl, 10 mM MgCl2, 10 mM CaCl2, RT) turned out to be 1 nM. “GTATTCCTGTAAGATCT (double strand) [Ly6E]” came in with a Kd in data set [1] (dimer concentration at half saturation, weak site) of 1 nM.

In data set [1] (dimer concentration at half saturation, strong site), GTTGTTCCGGGAAAAGG (double strand) [S1] displayed a Kd of 1 nM. Take “GATTTCCCGTAAATCAT (double strand) [cfosM67]”: the Kd in data set [1] (stated as same result for several oligonucleotides, complex half-life about 3 min (FIG. 5D)) was found to be 1 nM.

B1: cfosM67 (dsDNA)
DNA 1: GATTTCCCGTAAATCAT
DNA 2: ATGATTTACGGGAAATC
For B1, the binding result in data set [2] is “binds”.

B2: 2x cfosWT (10 bp spacing) (dsDNA)
DNA 1: AGTCAGTTCCCGTCAATGCATCAGGTTCCCGTCAATGCAT
DNA 2: ATGCATTGACGGGAACCTGATGCATTGACGGGAACTGACT
Regarding B2, the binding result in data set [3] and in data set [4] was “binds” in each case.

B3: cfosWT (dsDNA)
DNA 1: GTATTCCCGTCAATGCA
DNA 2: TGCATTGACGGGAATAC
Consider B3, for which, in data set [5], the Kd is approximately 1 nM.

B4: 2x cfosWT (15 bp spacing) (dsDNA)
DNA 1: AGTCAGTTCCCGTCAATGATCGCTACAGAGTTCCCGTCAAGCA
DNA 2: TGCTTGACGGGAACTCTGTAGCGATCATTGACGGGAACTGACT
As to B4, the binding result in data set [6] was “binds”.
